US12428446B2, “Peptide compound or pharmaceutically acceptable salt thereof” (Eyebio Korea, priority 2019, dated 2025)
*1 amine or outer side, *2 acyl side, *3 side chain or, on linkers, in order; H or OH if unused. Primed or numbered codes have the meaning given here. Where no end group is shown, it is not given here. [ ]: non-standard residue; d: D form. Pro(trans-4-NH2) = O=C([C@@H]1C[C@@H](N[*:3])CN1[*:1])[*:2]; Pro(cis-4-F) = O=C(O)[C@@H]1C[C@H](F)CN1; Pro(4,4-Me2) = CC1(C)CN[C@H](C(=O)O)C1; Asu′ = aspartimide (aminosuccinimide); Hyp = O=C(O)[C@@H]1C[C@@H](O)CN1; dHyp = O=C(O)[C@H]1C[C@H](O)CN1

Legend:
[1] = Evaluation of dissolution stability (content change on storage in dissolved state); assay type: physicochemical; conditions: 1 mg/1 ml dissolved state, 40° C. and RH 75%
[2] = system: IL-1β secretion, Raw 264.7 cells; test: Anti-inflammatory efficacy: IL-1β ELISA in LPS-stimulated Raw 264.7 macrophages; assay type: cell-based, mouse; conditions: for IL-1β level increased by LPS: 1 h pretreatment, LPS 1 μg/ml 24 h; for anti-inflammatory effect by regulating the secretion of IL-1β: summary, concentration not given
Experimental: (§1) An anti-inflammatory efficacy was evaluated for representative examples of the above examples. Specifically, in order to confirm whether Examples 10, 32, 41, 55, 59 and 91, which are representative examples of 5 amino acid residues, Examples 11 and 30, which are representative examples of 6 amino acid residues, Example 86, which is a representative example of 7 amino acid residues, and Examples 103 and 104, which are representative examples of 8 amino acid residues, have an anti-inflammatory effect, a change in the secretion amount of inflammatory cytokines was confirmed by enzyme-linked immunosorbent assay (ELISA) using Raw 264.7 cells, which are macrophage (monocyte) cell lines.
(§2) Specifically, the Examples were diluted in Raw264.7 cells (Korean Cell Line Bank, 40071) at a concentration of 10 nM, 100 nM, 1 μM, and 10 μM, respectively, and pretreated for 1 hour, and then LPS (Sigma, L6529) at a concentration of 1 μg/ml was added to induce an inflammatory response. After 24 hours of induction, the cell culture supernatant was collected and analyzed. Enzyme-linked immunosorbent assay was performed using Mouse IL-6 Quantikine ELISA Kit (R&D systems, M6000B), TNF-alpha Quantikine ELISA Kit (R&D systems, MTA00B), Mouse IL-1 beta/IL-1F2 Quantikine ELISA Kit (R&D systems, MLB00C) in accordance with the manufacturer's manual.

[3] = system: TNFα secretion, Raw 264.7 cells; test: Anti-inflammatory efficacy: TNFα ELISA in LPS-stimulated Raw 264.7 macrophages; assay type: cell-based, mouse; conditions: for TNFα level increased by LPS: 1 h pretreatment, LPS 1 μg/ml 24 h; for anti-inflammatory activity by regulating the secretion of TNFα: summary, concentration not given
Experimental: as §1, §2

[4] = system: IL-6 secretion, Raw 264.7 cells; test: Anti-inflammatory efficacy: IL-6 ELISA in LPS-stimulated Raw 264.7 macrophages; assay type: cell-based, mouse
Experimental: as §1, §2

| Substance | Day 1 content (%) [1] [%] | Day 3 content (%) [1] [%] | Day 7 content (%) [1] [%] | Initial content (%) [1] [%] | also measured |
| --- | --- | --- | --- | --- | --- |
| 4,4-dimethyl Pro-Gly-Gln-Asp-Gly ([Pro(4,4-Me2)]GQDG) [Example 55] | 94.34 | 90.29 | 81.00 | 97.82 | IL-1β level increased by LPS ([2]; 100 nM peptide): significantly reduced; anti-inflammatory effect by regulating the secretion of IL-1β [2]: significant anti-inflammatory effect |
| Gln-Asu-Gly-Leu-Ala-Gly-Pro-Lys (Q[Asu′]GLAGPK) [Example 104] | 96.52 | 93.78 | 93.01 | 94.22 | TNFα level increased by LPS ([3]; 10 nM peptide): significantly reduced; anti-inflammatory activity by regulating the secretion of TNFα [3]: significant anti-inflammatory activity |
| Hyp-Gly-Gln-Asp-Gly ([Hyp]GQDG) [Example 10] | – | 86.65 | 78.68 | 98.76 | IL-1β level increased by LPS ([2]; 100 nM peptide): significantly reduced; IL-1β level increased by LPS ([2]; 1 μM peptide): significantly reduced; anti-inflammatory effect by regulating the secretion of IL-1β [2]: significant anti-inflammatory effect; TNFα level increased by LPS ([3]; 10 nM peptide): significantly reduced; TNFα level increased by LPS ([3]; 1 μM peptide): significantly reduced; anti-inflammatory activity by regulating the secretion of TNFα [3]: significant anti-inflammatory activity |
| Hyp-Gly-Gln-Asp-Gly-Leu ([Hyp]GQDGL) [Example 11] | 91.37 | 81.21 | 64.19 | 98.96 | TNFα level increased by LPS ([3]; 10 μM peptide): significantly reduced; anti-inflammatory activity by regulating the secretion of TNFα [3]: significant anti-inflammatory activity |
| Hyp-Gly-Gln-Asu-Gly-Leu-Ala-Gly ([Hyp]GQ[Asu′]GLAG) [Example 103] | 97.20 | 96.90 | 94.88 | 97.09 | IL-1β level increased by LPS ([2]; 1 μM peptide): significantly reduced; anti-inflammatory effect by regulating the secretion of IL-1β [2]: significant anti-inflammatory effect |
| Hyp-Gly-Gln-D Asp-Gly ([Hyp]GQ[dD]G) [Example 59] | 98.78 | 98.76 | 98.75 | 98.78 | IL-1β level increased by LPS ([2]; 100 nM peptide): significantly reduced; anti-inflammatory effect by regulating the secretion of IL-1β [2]: significant anti-inflammatory effect; anti-inflammatory activity by regulating the secretion of TNFα [3]: significant anti-inflammatory activity |
| Hyp-Gly-Gln-Glu-Leu-Leu-Ala ([Hyp]GQELLA) [Example 86] | 97.40 | 97.77 | 97.55 | 98.16 | IL-1β level increased by LPS ([2]; 10 nM peptide): significantly reduced; IL-1β level increased by LPS ([2]; 1 μM peptide): significantly reduced; IL-1β level increased by LPS ([2]; 10 μM peptide): significantly reduced; anti-inflammatory effect by regulating the secretion of IL-1β [2]: significant anti-inflammatory effect |
| Hyp-Gly-Gln-Leu-Leu-Leu ([Hyp]GQLLL) [Example 98] | 99.07 | 98.86 | 98.74 | 99.03 | – |
| Hyp-Gly-Gln-Leu-Leu-Leu-Ala ([Hyp]GQLLLA) [Example 96] | 97.14 | 96.64 | 96.02 | 98.07 | – |
| Hyp-Gly-Gln-Leu-Val ([Hyp]GQLV) [Example 95] | 98.62 | 98.10 | 97.78 | 98.64 | – |
| Hyp-Gly-Gln-Leu-Val-Leu ([Hyp]GQLVL) [Example 99] | 99.44 | 99.28 | 99.15 | 99.45 | – |
| Hyp-Gly-Gln-Leu-Val-Leu-Ala ([Hyp]GQLVLA) [Example 97] | 95.01 | 94.31 | 94.08 | 97.08 | – |
| Hyp-Gly-Leu-Ala-Gly-Pro-Lys ([Hyp]GLAGPK) [Example 27] | 98.16 | 98.15 | 98.16 | 98.24 | – |
| Hyp-Leu-Gln-Asp-Gly ([Hyp]LQDG) [Example 75] | 91.10 | 75.24 | 61.06 | 98.53 | – |
| Hyp-Val-Gln-Asp-Gly ([Hyp]VQDG) [Example 74] | 92.95 | 85.57 | 79.66 | 98.01 | – |
| LGLAGPK [Example 20] | 98.77 | 99.69 | 99.66 | 99.35 | – |
| Leu-Ala-Gly-Pro-Lys (LAGPK) [Example 25] | 85.76 | 81.09 | 77.40 | 89.14 | – |

| Substance | Day 1 content (%) [1] [%] | Day 3 content (%) [1] [%] | Day 7 content (%) [1] [%] | Initial content (%) [1] [%] | also measured |
| --- | --- | --- | --- | --- | --- |
| PGQDGL [Example 77] | 86.66 | 80.88 | 69.44 | 92.01 | – |
| PGQDGLA [Example 78] | 92.18 | 85.14 | 74.01 | 97.41 | – |
| Pro-Gly-Gln-Asp-Gly (PGQDG) [Example 76] | 90.01 | 82.34 | 69.13 | 95.07 | – |
| QDGLAG [Example 30] | 95.61 | 94.27 | 91.57 | 96.44 | IL-6 level increased by LPS ([4]; 10 nM peptide, 1 h pretreatment, LPS 1 μg/ml 24 h): significantly reduced; anti-inflammatory activity by regulating the secretion of IL-6 ([4]; summary, concentration not given): significant anti-inflammatory activity |
| QDGLAGPK [Example 16] | 47.33 | 16.48 | 10.78 | 80.41 | – |
| QEGLAG [Example 70] | 90.84 | 88.52 | 85.77 | 92.41 | – |
| QLGLAGPK [Example 18] | 53.91 | 36.72 | 13.41 | 82.99 | – |
| [Hyp]GQDVLA [Example 37] | 98.64 | 97.76 | 93.55 | 98.59 | – |
| [Hyp]GQ[dD]GLA [Example 64] | 91.62 | 86.18 | 48.37 | 96.19 | – |
| [Hyp]G[dQ]DGL [Example 60] | 92.72 | 88.92 | 58.84 | 97.21 | – |
| [Hyp]G[dQ]DGLA [Example 63] | 88.74 | 81.41 | 64.20 | 94.37 | – |
| [dHyp]GQDG [Example 40] | 81.96 | 70.04 | 51.11 | 89.95 | – |
| cis-4F Pro-Gly-Gln-Asp-Gly-Leu-Ala ([Pro(cis-4-F)]GQDGLA) [Example 51] | 83.35 | 72.55 | 49.31 | 92.07 | – |
| cis-4F-Pro-Gly-Gln-Asp-Gly-Leu ([Pro(cis-4-F)]GQDGL) [Example 46] | 87.32 | 81.37 | 62.32 | 93.29 | – |
| trans-4NH2-Pro-Gly-Gln-Asp-Gly ([Pro(trans-4-NH2)]GQDG) [Example 42] | 65.09 | 52.07 | 37.87 | 71.84 | – |
| trans-4NH2-Pro-Gly-Gln-Asp-Gly-Leu ([Pro(trans-4-NH2)]GQDGL) [Example 47] | 84.03 | 75.02 | 51.42 | 94.90 | – |
| trans-4NH2-Pro-Gly-Gln-Asp-Gly-Leu-Ala ([Pro(trans-4-NH2)]GQDGLA) [Example 52] | 86.35 | 74.65 | 54.51 | 96.55 | – |
